Consider 1 protein from article PMC10511561, “Synergism between CMG helicase and leading strand DNA polymerase at replication fork” (Nature Communications, 2023).

This data set concerns the molecule itself. The data set is described as follows: cryo-EM structure; replisome assembled at room temperature from 0.7 uM CMG, forked DNA and ATPγS, then 1.5 molar excess of Polε, Ctf4, Tof1-Csm3; 100 mM KCl, 25 mM HEPES pH 7.6, 4 mM MgCl2, 4 mM ATPγS; 10-30% glycerol gradient with glutaraldehyde fixation; States I-VI by 3D classification.

B1: Ctf4 homotrimer (natural protein, yeast)
chain: MVSVIDKLVFDFGGKTLVSLAPDNNTLCVANKNGLTKILKTNNPEEEPETLDSSKLVSSIKCYSNSHFLMTTMQGDALRYNIDSSQEELLARFALPLRDCCVIHSGKMAVFGGDDLELILLELDDETHKKHAIKIDEQVSQISYNSQMNILAVSMINGKVQIFSLTSTIPNKVHELNDYIVANSYDDTHRDKILSNMMDDIDKDNDNDLSETADPDENNVADPEFCAANRICTRVAWHPKGLHFALPCADDTVKIFSIKGYSLQKTLSTNLSSTKAHFIDLQFDPLRGTYIAAVDLNNKLTVWNWETSEIHYTREFKRKITNIAWKIQADSKTLDLVLGTWSGSIAIVQNLAESVVSNIPDQSVAESSTKHGLFVDSESDLENLEGNDDINKSDKLFSDITQEANAEDVFTQTHDGPSGLSEKRKYNFEDEEDFIDDDDGAGYISGKKPHNEHSYSRVHKTHSFPISLANTGKFRYMPFSPAGTPFGFTDRRYLTMNEVGYVSTVKNSEQYSITVSFFDVGRFREYHFEDLFGYDLCFLNEKGTLFGQSKTGQIQYRPHDSIHSNWTKIIPLQAGERITSVAATPVRVIVGTSLGYFRSFNQFGVPFAVEKTSPIVALTAQNYRVFSVHYSQFHGLSYSLSELGTSSKRYYKRECPLPMSLPNINSDMKKDANLDYYNFNPMGIKSLFFSSYGDPCIFGSDNTLLLLSKWRSPEESKWLPILDSNMEIWKMSGGKETTDIHVWPLALAYDTLNCILVKGKHIWPEFPLPLPSEMEIRMPVFVKSKLLEENKAILNKKNEIGADTEAEEGEEDKEIQIPVSMAAEEEYLRSKVLSELLTDTLENDGEMYGNENEVLAALNGAYDKALLRLFASACSDQNVEKALSLAHELKQDRALTAAVKISERAELPSLVKKINNIREARYEQQLK
notes: Ctf4, yeast; also called Ctf4 trimer; source: E. coli BL21(DE3) Rosetta (pXZ1), purified (Ni-NTA, sumo protease, Ni-NTA, Mono Q, Superose 6)
B1: the “stoichiometry N” value came out at 3.

By stoichiometry N is commonly meant the number of molecules, sites or subunits per partner or assembly.
